The data set in a line: protein stability index of a GFP-peptide fusion (GPS, HEK-293T) (PSI 1-6); higher = more stable. The note with it: c terminus: a fixed tail appended.

± gives the standard deviation.
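Further: 24-mer peptide tiles fused after GFP, lentivirally expressed, FACS-sorted into six equal bins by GFP/DsRed ratio, decoded by Illumina sequencing, PSI is the read-weighted mean bin number.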

Turning to KLNCDPSRIYKPQTRLKRKQPVRK [DFFB], the protein stability index was 3.36 ± 0.56 (treatment: DMSO) and 3.71 ± 0.63 (treatment: MLN4924 1 uM, 8 h).
In the same order, the values of KLPFCAMGVSSVIHPKNPHAPTIH [CPOX] are 2.52 ± 0.2 and 2.52 ± 0.31.
Regarding KLPLPIALRSHLKSFSMANGLNAR [RAB40B], the protein stability index by setting is: (treatment: DMSO) 2.41 ± 0.23; (treatment: MLN4924 1 uM, 8 h) 2.46 ± 0.19.
Regarding KLWSFFIYLLRRQIRTVIQYQTVR [CTDNEP1], the protein stability index by setting is: (treatment: DMSO) 2.99 ± 0.3; (treatment: MLN4924 1 uM, 8 h) 2.94 ± 0.37.
In the same order, the values of KNEPYLEAACNDVDRWPAPVPGKT [DENND6A] are 4.62 ± 0.23 and 4.67 ± 0.19.
For KNTFEFLKENNFQPYPLPHVRHMA [CLK3], in that order: 2.54 ± 0.26 and 2.51 ± 0.12.
In the same order, the values of KPASKPAGSSHTPSSQSSSGGGRD [ELOA2] are 5.47 ± 0.3 and 5.48 ± 0.19.
Take KPKTTNIELQGVPNDEVHPLLGVK [RBBP5]: the protein stability index by setting is: (treatment: DMSO) 4.65 ± 0.7; (treatment: MLN4924 1 uM, 8 h) 4.75 ± 0.34.
In the same order, the values of KPPYSYATLICMAMQASKATKITL [FOXJ1] are 2.78 ± 0.57 and 2.8 ± 0.53.
For KRQVTHFQFLSWPDYGVPSSAASL [PTPN9], in that order: 2.21 ± 0.35 and 2.38 ± 0.18.
For KRYSMYLTPKGGVRTSYQPSSPGR [TRIM29], in that order: 3.15 ± 0.28 and 3.37 ± 0.41.
Turning to KSAAMLAVFAVSAVVHEYALAVCL [SOAT1], the protein stability index runs as follows: (treatment: DMSO) 3.22 ± 0.64; (treatment: MLN4924 1 uM, 8 h) 3.32 ± 0.54.
As for KSLEWSPWNCILLTKDEAAAHLKL [IQUB], the protein stability index by setting is: (treatment: DMSO) 2.41 ± 0.22; (treatment: MLN4924 1 uM, 8 h) 2.56 ± 0.11.
For KSTWPRYSKPGLSMRLLESKKGLS [TCF25], in that order: 2.92 ± 0.34 and 3.12 ± 0.17.
For KTRTVFSSTQLCVLNDRFQRQKYL [NANOGP8], in that order: 2.5 ± 0.12 and 2.67 ± 0.29.
For KVIYDFIEKTGGVEAVKNELRRQA [WASL], in that order: 2.13 ± 0.41 and 2.28 ± 0.23.
On to KVNQNQAKRCTVIGGSGFLGQHMV [NSDHL], for which the protein stability index (treatment: DMSO) is 2.22 ± 0.21 and the protein stability index (treatment: MLN4924 1 uM, 8 h) came out at 2.07 ± 0.2.
With KWTGDFFNKGIYDIHVGLRGVPLL [CLCN6], the protein stability index stood at 2.86 ± 0.8 (treatment: DMSO) and 2.24 ± 0.44 (treatment: MLN4924 1 uM, 8 h).
As for LAAPSLHVKEQLPCAGLNCQALDA [TLE6], the protein stability index runs as follows: (treatment: DMSO) 3.92 ± 0.25; (treatment: MLN4924 1 uM, 8 h) 3.97 ± 0.28.
Regarding LAGGLCVGIYATNSAEACQYVITH [ACSBG2], the protein stability index is, setting by setting: (treatment: DMSO) 2.84 ± 1.1; (treatment: MLN4924 1 uM, 8 h) 2 ± 0.36.
For LAPVRQQELASLLRTYLARLPWAG [PBXIP1], in that order: 2.22 ± 0.28 and 2.12 ± 0.27.
In the same order, the values of LAQAAGFAPQTGARPSETFARFCK [DNAAF3] are 3.52 ± 0.23 and 3.57 ± 0.4.
With LASTSKPVVKLLHNRSNNKYSYTS [KCTD13], the protein stability index (treatment: DMSO) was 3.08 ± 0.2 and the protein stability index (treatment: MLN4924 1 uM, 8 h) came out at 3.27 ± 0.28.
In the same order, the values of LAVCLAPSLFHLNTLKRENSSPRV [DLC1] are 2.24 ± 0.24 and 2.11 ± 0.2.
For LCPGDLIQAINGESTELMTHLEAQ [PDLIM4], in that order: 4.51 ± 0.26 and 4.54 ± 0.094.
In the same order, the values of LCQCHEGFALNPDKKTCTKIDYCA [MATN2] are 2.95 ± 0.29 and 3.35 ± 0.6.
On to LDMDEGTLSFIVDGQYLGVAFRGL [SPSB4], for which the protein stability index runs as follows: (treatment: DMSO) 2.6 ± 0.46; (treatment: MLN4924 1 uM, 8 h) 2.26 ± 0.59.
In the same order, the values of LDQAPKARKYFERLPGGGWTLRRT [DYRK1B] are 3.48 ± 0.27 and 3.33 ± 0.33.
For LDQLLRHVMNPLETLSITNCRLSE [PRAME], in that order: 2.59 ± 0.62 and 2.39 ± 0.49.
For LDRHQLPLDDALLSFAHANCTLII [DPCD], in that order: 2.69 ± 0.56 and 2.63 ± 0.48.
For the sequence LEALIDTIQKQLKDHSCKDNIREA [EFHC1], the protein stability index is, setting by setting: (treatment: DMSO) 3.55 ± 0.21; (treatment: MLN4924 1 uM, 8 h) 3.65 ± 0.25.
Take LEAPEDIGSTSESKDWEEVVVESM [MIA2]: the protein stability index (treatment: DMSO) turned out to be 5.4 ± 0.23 and the protein stability index (treatment: MLN4924 1 uM, 8 h) amounted to 5.58 ± 0.013.
For LEELIDMAVLEEIQQELIKQEQSI [RPAIN], in that order: 3.34 ± 0.31 and 3.44 ± 0.3.
In the same order, the values of LEENELTSLAEDLLGLTDPNGGLA [TRADD] are 4.49 ± 0.27 and 4.43 ± 0.29.
In the same order, the values of LEKEIEVLERGDSAPATAKENAAA [PALM] are 5.34 ± 0.2 and 5.62 ± 0.2.
With LEKGLEPEPQVPGPAHGPAQEEPW [ZNF232], the protein stability index reads like this: (treatment: DMSO) 5.35 ± 0.46; (treatment: MLN4924 1 uM, 8 h) 5.35 ± 0.25.
For LENLCENASTLRTINIKCHVHDPH [FBXO39], the protein stability index runs as follows: (treatment: DMSO) 3.59 ± 0.27; (treatment: MLN4924 1 uM, 8 h) 3.59 ± 0.036.

Values taken from the supplement of paper PMC10567573.
